Each block holds one binder with its values, some of them ahead of it.
Target: T1, EMR2 (human, UniProt Q9UHX3)
T1 chain: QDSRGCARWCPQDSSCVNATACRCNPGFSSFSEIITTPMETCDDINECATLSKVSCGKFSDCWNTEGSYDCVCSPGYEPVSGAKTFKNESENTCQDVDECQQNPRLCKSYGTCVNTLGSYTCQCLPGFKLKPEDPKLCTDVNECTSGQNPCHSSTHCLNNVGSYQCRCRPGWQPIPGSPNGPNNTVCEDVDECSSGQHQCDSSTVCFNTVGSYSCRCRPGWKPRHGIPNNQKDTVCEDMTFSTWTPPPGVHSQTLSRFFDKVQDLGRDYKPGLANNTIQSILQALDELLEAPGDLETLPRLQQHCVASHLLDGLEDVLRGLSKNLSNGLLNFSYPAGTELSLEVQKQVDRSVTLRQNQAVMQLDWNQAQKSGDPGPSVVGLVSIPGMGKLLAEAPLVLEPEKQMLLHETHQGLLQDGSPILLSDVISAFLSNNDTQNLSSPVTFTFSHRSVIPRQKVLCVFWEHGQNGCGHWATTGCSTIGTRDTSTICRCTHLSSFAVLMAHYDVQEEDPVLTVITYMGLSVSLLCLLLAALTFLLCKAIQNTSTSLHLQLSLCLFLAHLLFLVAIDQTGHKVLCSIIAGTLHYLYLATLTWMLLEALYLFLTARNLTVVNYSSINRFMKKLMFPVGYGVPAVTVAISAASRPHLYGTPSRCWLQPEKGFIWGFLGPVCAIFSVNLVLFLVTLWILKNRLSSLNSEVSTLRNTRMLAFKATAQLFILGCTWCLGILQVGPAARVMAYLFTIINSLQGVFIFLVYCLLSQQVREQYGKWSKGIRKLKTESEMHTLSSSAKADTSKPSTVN
Experiment: ELISA

- EC50: < 1 nM
B1: EMR2-3-VH (designed binder)
chain: QVQLVQSGGGLVQPGGSLRLSCAASDFSFDSYEMSWVRQAPGKGLEWVSSISASGGRTFYADSVKGRFTISRDNSKNTLYLQMNTLRAEDTALYYCARHPGIMGQGTLVTVSS

- EC50: < 1 nM
B2: EMR2-1-scFv (antibody, V domains shown)
VH: QVQLVQSGAEVKKPGASVKVSCKASGYTFTSYGISWVRQAPGQGLEWMGWISAYNGNTNYAQKLQGRVTMTTDTSTSTAYMELRSLRSDDTAVYYCARGYAFDIWGQGTMVTVSS
VL: SYELTQPLSVSVALGQTARITCGGNNIGSKNVHWYQQKPGQAPVLVIYRDSNRPSGIPERFSGSNSGNTATLTINRAQAGDEADYYCQVWDSSTVVFGGGTELTVL

- EC50: < 1 nM
B3: EMR2-2-scFv (antibody, V domains shown)
VH: QVQPVESGGGLVQPGGSLRLSCAASGFTFSSYEMNWVRQAPGKGLEWVSAISGGGGSTYYADSVKGRFTISRDNSKNTLYLQMNSLRAEDTAVYYCAKSGRGWAAAGRWGQGTLVTVSS
VL: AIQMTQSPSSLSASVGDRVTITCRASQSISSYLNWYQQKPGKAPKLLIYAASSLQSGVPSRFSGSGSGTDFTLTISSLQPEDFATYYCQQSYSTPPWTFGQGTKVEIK

Source: US20260356970 (published 2026)
